Test results taken from publication PMC6547453.
Values belong to the substance of their own block, whether it stands above or below them.

Experiments:
[1] = target: RspWYL1 double mutant I108D/I109D (Ruminococcus sp.); assay: SEC; Superdex 200 gel filtration column, compared with a protein molecular mass standard mixture
[2] = target: full-length RspWYL1 (Ruminococcus sp. WYL1, amino acids 1–392) (Ruminococcus sp.); assay: as above
[3] = target: full-length RspWYL1 (Ruminococcus sp. WYL1, amino acids 1–392) (Ruminococcus sp.); assay: SEC-MALS; HPLC SEC-MALS, AdvanceBio SEC 300A column, 50 mM Tris-HCl pH 7.5, 150 mM NaCl, 1 mM TCEP; RspWYL1 loaded at 10 mg/ml
[4] = target: RspWYL1 double mutant Y386A/N387A (Ruminococcus sp.); assay: SEC; Superdex 200 gel filtration column, compared with a protein molecular mass standard mixture

stoichiometry N [1]: 2
Substance: RspWYL1 double mutant I108D/I109D (natural protein)

stoichiometry N [2]: 2 | stoichiometry N [3]: 2
Substance: full-length RspWYL1 (Ruminococcus sp. WYL1, amino acids 1–392) (natural protein)

stoichiometry N [4]: 2
Substance: RspWYL1 double mutant Y386A/N387A (natural protein)
